From patent US20220235144A1 (QILU PUGET SOUND BIOTHERAPEUTICS, published 2022)
Where a chain is given by its changes, count along the chain named. Where two headings read alike, the source gives them in different places. Each block holds one binder with its values, some of them ahead of it.

Experiments:
[1] = target: T1, hSIRPαV2 expressed on the cell surface (human, UniProt P78324 31-504); assay: FACS competition: inhibition of biotinylated hCD47:Fc (2.5 µg/ml) binding to EXPI293 cells expressing hSIRPαV2, FIG. 5A
T1 construct: whole, on cells; also called human SIRPα variant V2
Procedure: (§1) The x axes show the antibody concentration in μg/ml. The y axes show mean fluorescence intensity (MFI) at about 572 nm.
(§2) Some of the anti-SIRPα antibodies described above were tested in vitro for their ability to inhibit binding of CD47 to hSIRPαV1 or hSIRPαV2 expressed on the surface of EXPI293™ cells stably transfected with DNA encoding these proteins. Briefly, stable transfectants expressing hSIRPαV1 or hSIRPαV2 were seeded into 96-well microtiter plates. […] After 30 minutes incubation, cells were washed, streptavidin-phycoerythrin (streptavidin-PE) was added, and cells were subjected to FACS to detect bound hCD47:Fc. Results were reported as a mean fluorescence intensity (MFI) using FlowJo software (FLOWJO, L.L.C., Ashland, Oreg., USA). FIGS. 4 and 5 show the MFI detected on the y axes of both panels and the antibody concentration on the x axes of both panels.

[2] = target: T2, hSIRPαV1 expressed on the cell surface (human, UniProt P78324 31-504); assay: FACS competition on EXPI293 cells stably expressing hSIRPαV1: biotinylated hCD47:Fc (2.5 µg/ml) mixed with serial dilutions of the antibody, bound hCD47:Fc detected with streptavidin-PE (MFI); blocked ligand: hCD47:Fc
T2 construct: also called human SIRPα variant V1
Procedure: as §1, §2

[3] = target: T3, hSIRPαV1D1 with histidine tag (human, UniProt P78324 31-147); assay: SPR (Biacore 3000), IgG captured on anti-human IgG, His-tagged D1 analyte
T3 construct: analyte of the Biacore experiments; also called first immunoglobulin-like domain of human SIRPα variant V1; not shown: histidine tag
Text: (§3) Goat anti-human IgG capture antibody (Jackson Laboratories; 109-005-098) was immobilized on the four flow cells in each sensor chip using standard amine coupling chemistry. About 8000 resonance units (RU) of this antibody was immobilized on each flow cell. Flow cells 2, 3, and 4 were used to analyze captured anti-SIRPα antibodies (about 250 to 300 RU were captured on each of flow cells 2, 3, and 4), while flow cell 1 was used as the reference flow cell. The analytes tested were hSIRPαV1D1, hSIRPαV2D1, cynomolgus monkey SIRPαV1D1 (cSIRPαV1D1), cSIRPαV2D1, hSIRPβ1D1, and hSIRPγD1, each of which also included a histidine tag. The sequences of cSIRPαV1D1 and cSIRPαV2D2 are provided in SEQ ID NOs: 143 and 142, respectively. To avoid confusion, the differences between the amino acid sequences of cSIRPαV1D1 and cSIRPαV2D1 are not the same as the differences between the amino acid sequences of hSIRPαV1D1 and hSIRPαV2D1. […] The amino acid sequence of hSIRPβ1D1 can be found in amino acids 30-148 of SEQ ID NO: 144, and the amino acid sequence of hSIRPγD1 can be found in amino acids 31-149 of SEQ ID NO: 141.
(§4) Generally, concentrations from about 0.1×KD to about 10×KD are appropriate for kinetic analysis. From one to six different concentrations were evaluated for each antibody:analyte interaction, depending on the comparisons to be made in an individual experiment. All analyte dilutions were prepared in HPS-EP buffer. Multiple blank (running buffer) injections were run and used to assess and subtract system artifacts. The association phase and dissociation phase for all analyte concentrations were monitored for 180 seconds and 300 seconds, respectively, at a flow rate of 50 μL/min. Between antibody samples, the surfaces of the flow cells were regenerated with 10 mM glycine, pH 1.5 using two injections, each lasting 12 seconds at a flow rate of 50 μL/min.
(§5) The data were analyzed using BIAevaluation software (Biacore, General Electric (GE)). The data was fit using the 1:1 Langmuir model.

[4] = target: T4, hSIRPαV2D1 with histidine tag (human); assay: as above
T4 construct: analyte of the Biacore experiments; also called first immunoglobulin-like domain of human SIRPα variant V2; not shown: histidine tag
Text: as §3, §4, §5

[5] = target: T5, cSIRPαV1D1 with histidine tag (cynomolgus monkey (Macaca fascicularis), UniProt Q5TFQ8 30-146 (human entry)); assay: as above
T5 construct: also called cynomolgus monkey SIRPαV1D1; not shown: histidine tag
T5 chain: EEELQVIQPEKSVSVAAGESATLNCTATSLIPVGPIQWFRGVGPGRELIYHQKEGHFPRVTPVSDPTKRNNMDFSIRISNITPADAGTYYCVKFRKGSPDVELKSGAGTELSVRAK
Text: as §3, §4, §5

[6] = target: T6, cSIRPαV2D1 with histidine tag (cynomolgus monkey (Macaca fascicularis), UniProt Q5TFQ8 30-146 (human entry)); assay: as above
T6 construct: also called cynomolgus monkey SIRPαV2D1; not shown: histidine tag
T6 chain: T5 chain with E19D, A27V, T28S, V42A, H51N, Q52L
Text: as §3, §4, §5

[7] = target: T7, hSIRPβ1D1 with histidine tag (human, UniProt O00241 30-148); assay: as above
T7 construct: analyte of the Biacore experiments; also called hSIRPβD1; not shown: histidine tag
Text: as §3, §4, §5

[8] = target: T8, hSIRPγD1 with histidine tag (human, UniProt Q9P1W8 31-149); assay: as above
T8 construct: also called first immunoglobulin-like domain of human SIRP Gamma; not shown: histidine tag
Text: as §3, §4, §5

[9] = target: T1, hSIRPαV2 expressed on the cell surface; assay: FACS competition on EXPI293 cells stably expressing hSIRPαV2: biotinylated hCD47:Fc (2.5 µg/ml) mixed with serial dilutions of the antibody, bound hCD47:Fc detected with streptavidin-PE (MFI); blocked ligand: hCD47:Fc
Procedure: (§6) The x axes show the antibody concentration in μg/ml. The y axes show mean fluorescence intensity (MFI) at about 572 nm (due to binding of biotinylated CD47:Fc, detected by a streptavidin-phycoerythrin conjugate).
as §2

[10] = target: T2, hSIRPαV1 expressed on the cell surface; assay: FACS competition on EXPI293 cells stably expressing hSIRPαV1: biotinylated hCD47:Fc (2.5 µg/ml) mixed with serial dilutions of the antibody, bound hCD47:Fc detected with streptavidin-PE (MFI); blocked ligand: hCD47:Fc; remark: listed apart in the source
Procedure: as §6, §2

[11] = target: T1, hSIRPαV2 expressed on the cell surface; assay: flow cytometry on primary human monocytes (FSC/SSC gate) in PBMCs expressing only SIRPαV2, antibody detected with APC-(Fab)2 goat anti-human IgG Fc (MFI at about 670 nm)
Procedure: FIG. 6: Binding of anti-SIRPα antibodies to T cells and monocytes. Methods are described in Example 4. […] The x axes show the antibody concentration in μg/ml. The y axes show mean fluorescence intensity (MFI) at about 670 nm (due to binding of allophycocyanin (APC)-conjugated (Fab)₂ goat anti-human IgG Fc-specific secondary antibody).
Some of the anti-SIRPα antibodies were tested in vitro for binding to primary T cells and monocytes in peripheral blood mononuclear cells (PBMCs). Briefly, PBMCs that expressed only SIRPα V2 were seeded in 96-well microtiter plates. Serial dilutions of anti-SIRPα antibodies were incubated with the cells on ice for 30 minutes. […] The cells were then subjected to FACs. T cells were gated based on their anti-CD4 or anti-CD8 binding (detected by FITC fluorescence), since T cells commonly express either CD4 or CD8. Monocytes were gated based on their forward scatter/side scatter (FSC/SSC) profile, since a characteristic FSC/SSC profile can identify monocytes. See, e.g., Marimuthu et al., Characterization of human monocytes subsets by whole blood flow cytometry analysis, J. Vis. Exp. (140), e57941, doi:10.3791/57941 (2018). The binding of anti-SIRPα antibodies to each population was reported as a mean fluorescence intensity (MFI) of the APC channel (670 nm).

IC50 [1]: 0.22 µg/mL | IC50 (read off the curve) [2]: ~0.4 µg/mL
B1: Ab24_G2 (antibody, human IgG2, kappa)
heavy: EVQLVESGGGLVKPGGSLRLSCAASGFTFSSYVMSWVRQTPGKGLEWVATISSGGTYTYYPDSVKGRFTLSRDNAKNSLYLQMNSLRAEDTAVYYCASQLTGSEFDYWGQGTTVTVSSASTKGPSVFPLAPCSRSTSESTAALGCLVKDYFPEPVTVSWNSGALTSGVHTFPAVLQSSGLYSLSSVVTVPSSNFGTQTYTCNVDHKPSNTKVDKTVERKCCVECPPCPAPPVAGPSVFLFPPKPKDTLMISRTPEVTCVVVDVSHEDPEVQFNWYVDGVEVHNAKTKPREEQFNSTFRVVSVLTVVHQDWLNGKEYKCKVSNKGLPAPIEKTISKTKGQPREPQVYTLPPSREEMTKNQVSLTCLVKGFYPSDIAVEWESNGQPENNYKTTPPMLDSDGSFFLYSKLTVDKSRWQQGNVFSCSVMHEALHNHYTQKSLSLSPGK
light: DIVLTQSPASLAVSLGERATISCRASESVDLYGTSFMHWYQQKPGQPPKLLIYRASNLESGVPDRFSGSGSRTDFTLTINPLQAEDVATYYCHQSSDELPWTFGGGTKVEIKRTVAAPSVFIFPPSDEQLKSGTASVVCLLNNFYPREAKVQWKVDNALQSGNSQESVTEQDSKDSTYSLSSTLTLSKADYEKHKVYACEVTHQGLSSPVTKSFNRGEC
notes: like Ab24_G4 but with an IgG2 HC; also called Ab24_IgG2

IC50 [1]: 0.17 µg/mL | IC50 (read off the curve) [2]: ~0.3 µg/mL
B2: Ab24_4422 PA (antibody, human IgG4 S228P, kappa)
heavy: B1 heavy with N193S, F194L, Q197K, T215R, R218S, C220Y, C221G, V222P, E223P, P326A
light: B1 light

Kd [3]: 67.9 nM | Kd [4]: 3.12 nM | Kd [5]: 36.4 nM | Kd [6]: ~399 nM | Kd [7]: 1.39 nM | Kd [8]: 244 nM | IC50 (read off the curve) [9]: ~0.2 µg/mL | IC50 (read off the curve) [10]: ~0.6 µg/mL
B3: Ab1_G4 (antibody, human IgG4 S228P, kappa, V domains shown)
VH: EVQLVESGGGLVKPGGSLRLSCAASGFTFSSYVMSWVRQTPGKGLEWVATISSGGTYTYYPSSVKGRFTLSRDNAKNSLYLQMNSLRAEDTAVYYCASSLTGSSFDYWGQGTTVTVSS
VL: DIVLTQSPASLAVSLGERATISCRASESVDLYGTSFMHWYQQKPGQPPKLLIYRASNLESGVPDRFSGSGSRTDFTLTINPLQAEDVATYYCHQSSDELPWTFGGGTKVEIKR
notes: human IgG4 format, kappa light chain, made in EXPICHO cells

Kd [3]: 231 nM | Kd [4]: 3.09 nM | Kd [5]: 127 nM | Kd [6]: ~519 nM | Kd [7]: 11.1 nM | Kd [8]: ~7310 nM | EC50 (read off the curve) [11]: ~0.06 µg/mL | IC50 (read off the curve) [9]: ~0.3 µg/mL
B4: Ab11_G4 (antibody, human IgG4 S228P, kappa, V domains shown)
VH: B3 VH with S62D, S99Q, S104E
VL: DIVITQSPASLAVSLGERATISCRASESVDSYGNSFMHWYQQKPGQPPKLLIYRASNLESGVPDRFSGSGSRTDFTLTINPLQAEDVATYYCHQSGDLPWTFGGGTKVEIKR
notes: human IgG4 format
